The text below walks through data of publication PMC4035259, “Structural Studies of an Anti-Inflammatory Lectin from Canavalia boliviana Seeds in Complex with Dimannosides” (PLoS ONE, 2014).

Series [1] concerns the target Concanavalin A (Canavalia ensiformis). The series can be described thus: SAXS; in solution, 1, 5 and 10 mg/ml, buffers from pH 3 to pH 9 (JBS Solubility Kit); average molecular weight at each pH from I(0), BSA as size standard; dimer-tetramer equilibrium.
Series [2] concerns the molecule itself. Described as above.

Usually stoichiometry N stands for the number of molecules, sites or subunits per partner or assembly. Regarding Concanavalin A (natural protein), the stoichiometry N in series [1] was 4.

B1: Canavalia boliviana lectin (natural protein, UniProt A0A023GPI8 1-237, looked up)
chain: ADTIVAVELDTYPNTDIGDPSYPHIGIDIKSVRSKKTAKWNMQNGKVGTAHIIYNSVGKRLSAVVSYPNGDSATVSYDVDLDNVLPEWVRVGLSATTGLYKETNTILSWSFTSKLKSNSTHETNALHFMFNQFSKDQKDLILQGDATTGRDGNLELTRVSSNGSPQGSSVGRALFYAPVHIWESSAVVASFDATFTFLIKSSDSHPADGIAFFISNIDSSIPSGSTGRLLGLFPDAN
notes: Lectin from Canavalia boliviana seeds, 237 amino acids (full-length alpha-chain, 25,572 Da); the preparation is a combination of the alpha-chain and its fragments, beta-chain (residues 1-118) and gamma-chain (residues 119-237); also called Cbol; CboL; source: purified from Canavalia boliviana seeds (according to Moura et al., 2009)
B1: the “stoichiometry N” value in series [2] amounted to 4.
